For 1 substance, stoichiometry N results are on record in publication PMC6187371.

Test [1] has as its target duligotuzumab meFab. Description: single molecule localization microscopy.
Test [2] addresses duligotuzumab memAb. Description: single molecule localization microscopy.

For the substance meditope-Alexa Fluor 647 (peptide), the stoichiometry N in test [1] was 1; in test [2], 2.
